Results published in PMC10635833, “A MEC-2/stomatin condensate liquid-to-solid phase transition controls neuronal mechanotransduction during touch sensing” (Nature Cell Biology, 2023).

Molecular target: the molecule itself
Experiment: NMR signal intensities and chemical shifts (1H-15N correlation spectra) of the mutant against the wild type; per-residue chemical shift difference and intensity ratio between MEC-2 C-terminal domain WT and R385H, no partner added

B1: MEC-2 C-terminal domain R385H mutant (domain or fragment, C. elegans, UniProt Q27433 371-481, looked up)
chain: PPKVEEPPSLPKKIHSCCLYKYPDWVQGMVGSEGGGGHGHSHGGGGGGLGSSQGAFHPSQAGSGPSTTTTSGRPLLRSMREAQFHSAAPPISAPNQSQTSVSQLDPALLIR
notes: MEC-2 (stomatin), C. elegans, C-terminal domain, residues 371-481 as for the wild-type construct, with R385H (allele u26); also called MEC-2 (R385H); u26 allele
Question: Does B1 bind?
Answer: binds
